In patent publication US20220396626A1 (GUANGZHOU BIO GENE TECHNOLOGY, published 2022):
Substitutions are numbered along the chain they refer to. Numbers in names are those of the source.

T1: human CLL1 on the surface of transfected cells (HEK293-CLL1; HEK-293T membrane proteome array) (human, UniProt Q5QGZ9 1-265)
T1 construct: whole, on cells; also called HEK293-CLL1 cells; CLL1 target antigen
T1 sequence (looked up): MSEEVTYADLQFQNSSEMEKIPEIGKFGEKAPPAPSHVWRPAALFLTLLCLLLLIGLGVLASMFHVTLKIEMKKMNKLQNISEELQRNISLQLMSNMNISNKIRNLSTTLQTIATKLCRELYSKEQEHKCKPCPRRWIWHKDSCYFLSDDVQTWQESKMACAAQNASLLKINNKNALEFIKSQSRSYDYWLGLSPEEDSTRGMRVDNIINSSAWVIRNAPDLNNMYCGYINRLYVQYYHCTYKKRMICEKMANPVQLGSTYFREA

T2: Recombinant Cynomolgus Monkey CLL-1 Protein (his), Acro CLA-H5263 (cynomolgus monkey, UniProt A0A2K5WXQ4 71-271)
T2 construct: also called Analyte 2
T2 sequence: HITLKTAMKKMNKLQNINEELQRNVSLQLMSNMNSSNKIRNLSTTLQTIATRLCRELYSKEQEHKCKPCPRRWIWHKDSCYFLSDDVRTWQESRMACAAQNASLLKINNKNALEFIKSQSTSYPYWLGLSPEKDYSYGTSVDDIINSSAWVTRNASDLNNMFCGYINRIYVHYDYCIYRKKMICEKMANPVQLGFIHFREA

T3: human CLL1 ECD-His (human CLL1 extracellular domain with His tag) (human, UniProt Q5QGZ9 65-265)
T3 construct: also called antigen human CLL1 ECD-His; antigen CLL1; not shown: His tag
T3 sequence: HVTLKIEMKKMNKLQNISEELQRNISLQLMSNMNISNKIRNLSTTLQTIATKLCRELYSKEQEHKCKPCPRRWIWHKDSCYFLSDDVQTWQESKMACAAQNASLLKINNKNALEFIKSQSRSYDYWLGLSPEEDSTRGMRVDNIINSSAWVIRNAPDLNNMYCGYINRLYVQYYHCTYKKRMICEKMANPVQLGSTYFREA

T4: Recombinant Human CLL-1 Protein (his), Acro CLA-H5245 (human, UniProt Q5QGZ9 65-265)
T4 construct: also called Analyte 1; not shown: his tag
T4 sequence (looked up): T3 sequence

B1: humanized antibody hz27H4H1L1 (antibody, V domains shown)
VH: EVQLVQSGAEVKKPGASVKVSCKASGYTFTGYHMHWVRQAPGQRLEWMGRINPYNGAASHNQKFKDRVTITRDTSASTAYMELSSLRSEDTAVYYCARGWDYDGGYYAMDYWGQGTLVTVSS
VL: DIQMTQSPSSLSASVGDRVTITCKSSQSLLYSDNQKNYLAWYQQKPGKAPKLLIYWASTRESGVPSRFSGSGSGTDFTLTISSLQPEDFATYYCQQYYTYPYTFGQGTKLEIK
notes: Heavy chain variable region hz27H4H1 with light chain variable region hz27H4L1; also called h27H4H1L1 (complete antibody)
B2: humanized antibody hz27H4H1L2 (antibody, V domains shown)
VH: B1 VH
VL: DIVMTQSPLSLPVTPGEPASISCKSSQSLLYSDNQKNYLAWYLQKPGQSPQLLIYWASTRESGVPDRFSGSGSGTDFTLKISRVEAEDVGVYYCQQYYTYPYTFGQGTKLEIK
notes: Heavy chain variable region hz27H4H1 with light chain variable region hz27H4L2; also called h27H4H1L2 (complete antibody)
B3: chimeric antibody ch27H4 (antibody, V domains shown)
VH: EVQLQQSGPELVKPGASVKISCKASGYSFTGYHMHWVKQSHVKSLEWIGRINPYNGAASHNQKFKDKATLTVDKSSSTAYMELHSLTSEDSAVYYCARGWDYDGGYYAMDYWGQGTSVTVSS
VL: DIVMSQSPSSLAVSVGEKVTMSCKSSQSLLYSDNQKNYLAWYQQKPGQSPKLLIYWASTRESGVPDRFTGSGSGTDFTLTISSVKAEDLAVYYCQQYYTYPYTFGGGTKLEIK
notes: also called parent antibody
B4: anti-human CLL-1 control antibody 1075.7 (antibody)
scFv: ENVLTQSPAIMSASPGEKVTMTCRASSNVISSYVHWYQQRSGASPKLWIYSTSNLASGVPARFSGSGSGTSYSLTISSVEAEDAATYYCQQYSGYPLTFGAGTKLELGGGGSGGGGSGGGGSDIQLQESGPGLVKPSQSLSLTCSVTGYSITSAYYWNWIRQFPGNKLEWMGYISYDGRNNYNPSLKNRISITRDTSKNQFFLKLNSVTTEDTATYYCAKEGDYDVGNYYAMDYWGQGTSVTVSS
notes: it was captured by anti-human IgG sensors and detected with anti-human IgG-Fc, so a human Fc was present; also called ch1075.7
B5: 23D7-scFv-hFc (Fc fusion)
scFv: QIVLTQSPAIMSASPGEKVTMTCSASSSVSYIYWYQQKPGSSPGLLIYDTSNLASGVPVRFSGSGSGTSYSLTISRMEAEDAATYYCQQWSSFPPTFGAGTKLELKGGGGSGGGGSGGGGSQVQLQQPGSDLVRPGASVKLSCKASGYTFTRYWMHWVKQRPGHGLEWIGYIYPGSGTSNYDEKFKSKATLTVDTSSSTAYMQLSSLTSEDSAVYYCTREARYTMDYWGQGTSVTVSS
notes: VL-(G4S)3-VH structure with C-terminal human IgG1 Fc; also called Anti-CLL1 scFv-hIgG1; not shown: human IgG1 Fc fused at the C-terminus
B6: 27H4-scFv-hFc (Fc fusion)
scFv: DIVMSQSPSSLAVSVGEKVTMSCKSSQSLLYSDNQKNYLAWYQQKPGQSPKLLIYWASTRESGVPDRFTGSGSGTDFTLTISSVKAEDLAVYYCQQYYTYPYTFGGGTKLEIKGGGGSGGGGSGGGGSEVQLQQSGPELVKPGASVKISCKASGYSFTGYHMHWVKQSHVKSLEWIGRINPYNGAASHNQKFKDKATLTVDKSSSTAYMELHSLTSEDSAVYYCARGWDYDGGYYAMDYWGQGTSVTVSS
notes: as for B5
B7: 19C1-scFv-hFc (Fc fusion)
scFv: QIVLTQSPAIMSASPGEKVTMTCSASSSVSYMYWYQQKPGSSPRLLIFDTSNLASGVPVRFSGSGSGTSYSLTISRMEAEDAATYYCQQWSSYPLTFGAGTKLELKGGGGSGGGGSGGGGSQVQLQQSGAELMKPGASVKISCKATGYTFSSYWIEWVKQRPGHGLEWIGEIFPGSGSIKYNEKFKGKATFTADTSSNTAYMQLSSLTSEDSAVHYCARGGTYNDYSLFDYWGQGTTLTVSS
notes: as for B5
B8: humanized antibody hz27H4H1L3 (antibody, V domains shown)
VH: B1 VH
VL: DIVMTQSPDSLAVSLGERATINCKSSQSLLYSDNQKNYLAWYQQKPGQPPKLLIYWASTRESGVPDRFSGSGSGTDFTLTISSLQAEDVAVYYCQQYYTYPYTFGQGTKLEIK
notes: Heavy chain variable region hz27H4H1 with light chain variable region hz27H4L3
B9: chimeric antibody ch19C1 (antibody, V domains shown)
VH: QVQLQQSGAELMKPGASVKISCKATGYTFSSYWIEWVKQRPGHGLEWIGEIFPGSGSIKYNEKFKGKATFTADTSSNTAYMQLSSLTSEDSAVHYCARGGTYNDYSLFDYWGQGTTLTVSS
VL: QIVLTQSPAIMSASPGEKVTMTCSASSSVSYMYWYQQKPGSSPRLLIFDTSNLASGVPVRFSGSGSGTSYSLTISRMEAEDAATYYCQQWSSYPLTFGAGTKLELK
B10: chimeric antibody ch23D7 (antibody, V domains shown)
VH: QVQLQQPGSDLVRPGASVKLSCKASGYTFTRYWMHWVKQRPGHGLEWIGYIYPGSGTSNYDEKFKSKATLTVDTSSSTAYMQLSSLTSEDSAVYYCTREARYTMDYWGQGTSVTVSS
VL: B9 VL with M32I, R44G, F48Y, Y93F, L95P

These binders were tested against T1, human CLL1 on the surface of … (assay: flow cytometry on HEK293 cells overexpressing CLL1).
Description: In the present example, flow cytometry was used to detect the binding of antibodies hz27H4H1L1, hz27H4H1L2 and CLL1 on HEK293 cells.

EC50	Binder
0.262 µg/mL	B1
0.321 µg/mL	B2
0.358 µg/mL	B3
0.245 µg/mL	B4

Each binder was assayed against T2, Recombinant Cynomolgus Monkey CLL-1 … (assay: SPR, antibody captured on Protein A chip, cynomolgus CLL-1 as analyte).

binding result	Binder
no binding (tested: 50 nM)	B1
no binding (tested: 50 nM)	B2
no binding (tested: 50 nM)	B5
no binding (tested: 50 nM)	B6
no binding (tested: 50 nM)	B7

Each binder was assayed against T3, human CLL1 ECD-His (human CLL1 …) (assay: BLI (ForteBio), antibody on AHC sensor, 60 nM human CLL1 ECD-His, 1:1 model).
Method: In short, 4 μg/mL antibody was loaded on the anti-human IgG capture (AHC) biosensor, the sensor was equilibrated offline for 30 min in the assay buffer, and the online monitoring was used for 60 s to establish the baseline; the antibody-loaded sensor was incubated with the 60 nM antigen human CLL1 ECD-His for 3 min, then transferred to the assay buffer, and the dissociation rate was measured after 3 min; the kinetic analysis was performed using a 1:1 binding model.

Kd	Response	koff	kon	Binder
2.29 nM	0.612	0.000862 s⁻¹	377000 M⁻¹ s⁻¹	B1
2.21 nM	0.726	0.000976 s⁻¹	441000 M⁻¹ s⁻¹	B2
2.49 nM	0.722	0.00109 s⁻¹	438000 M⁻¹ s⁻¹	B8
3.88 nM	0.597	0.00124 s⁻¹	320000 M⁻¹ s⁻¹	B3
6.76 nM	0.219	0.000997 s⁻¹	148000 M⁻¹ s⁻¹	B4

These binders were tested against T3, human CLL1 ECD-His (human CLL1 …) (assay: BLI (ForteBio), antibody on AHC sensor, 100 nM human CLL1 ECD-His, 1:1 model).
Method: In short, the antibody was loaded on the anti-human IgG capture (AHC) biosensor, the sensor was equilibrated in the assay buffer for 30 min offline, and monitored online for 60 s to establish the baseline; the antibody-loaded sensor was incubated with the 100 nM antigen human CLL1 ECD-His for 5 min, then transferred to the assay buffer, and the dissociation rate was measured after 5 min; the kinetic analysis was carried out using a 1:1 combination model.

Kd	Response	koff	kon	Binder
3.83 nM	0.634	0.00101 s⁻¹	265000 M⁻¹ s⁻¹	B3
10.9 nM	0.619	0.00197 s⁻¹	180000 M⁻¹ s⁻¹	B9
2.19 nM	0.654	0.000284 s⁻¹	130000 M⁻¹ s⁻¹	B10
0.414 nM	0.236	4.48e-05 s⁻¹	108000 M⁻¹ s⁻¹	B4

These binders were tested against T4, Recombinant Human CLL-1 Protein (his), … (assay: SPR, antibody captured on Protein A chip, recombinant human CLL-1 as analyte 3.125-50 nM, 1:1 model).

Kd	koff	kon	Binder
1.12 nM	0.00549 s⁻¹	4.91e+06 M⁻¹ s⁻¹	B1
1.08 nM	0.00544 s⁻¹	5.04e+06 M⁻¹ s⁻¹	B2
110 nM	0.0322 s⁻¹	293000 M⁻¹ s⁻¹	B5
3.06 nM	0.0126 s⁻¹	4.11e+06 M⁻¹ s⁻¹	B6
5.75 nM	0.00509 s⁻¹	886000 M⁻¹ s⁻¹	B7

What follows are binders tested against T1, human CLL1 on the surface of … (assay: flow cytometry on HEK293 cells overexpressing CLL1, FITC goat anti-human IgG-Fc secondary; controls on the sheet: Cells + Secondary Antibody 1029.8, Blank 1041.3).
Method: In the present example, flow cytometry was used to detect the binding of antibodies ch23D7, ch27H4, and ch19C1 to CLL1 on HEK293 cells. The steps are as follows:
5×10⁵ HEK293 cells overexpressing CLL1 were resuspended in PBS+5% BSA and incubated at 4° C. for 30 min; antibodies of different concentrations (1 μg/mL˜0.01 μg/mL, 10-fold dilutions) were added and incubated at 4° C. for 60 min; after centrifugation and washing, a PBS+5% BSA solution containing FITC-labeled goat anti-human IgG-Fc secondary antibody (1:200, sigma, F9512) was added, and incubated on ice for 30 min in the dark; the cells were washed 3 times and then analyzed by flow cytometry;

MFI at 0.01ug/ml	MFI at 0.1ug/ml	MFI at 1ug/ml	Binder
3510	25200	163000	B3
4610	35900	163000	B9
4690	34600	151000	B10
4580	35600	222000	B4
